Experimental data: patent publication US20090137002A1 (published 2009)
Values belong to the binder of their own block, whether it stands above or below them.

How the values were obtained:
[1] = biological target: T1, recombinant mouse EphA4-Fc fusion protein (mouse, UniProt Q03137 20-547, limits assumed); assay: ELISA: biotinylated mEphrinB2 on coated mEphA4
T1 construct: also called mEphA4; not shown: Fc part, not described
Protocol: (§1) A 96-well plate was coated with recombinant mEphB3, mEphA4 and hEphB4 in PBS o/n at 4° C. (5 μg/mL; 100 μL/well). The next day, the antigen was discarded and the plate blocked with 3% BSA/PBS (300 μl/well) for 2 hrs at room temperature (RT). Blocking solution was discarded and anti-EphB4 Fabs were added to the wells at a concentration of 100 μg/mL in 1% BSA/PBS and incubated for 30 min at RT. Recombinant biotinylated murine EphrinB2 was added at a final concentration of 250 ng/mL and incubated at RT for a further 30 min. The plate was washed and bound EphrinB2 was detected with Streptavidin-HRP (incubation 30 min at RT) and chemifluorescent substrate.

[2] = biological target: T2, recombinant human EphB4-Fc fusion protein (human, UniProt P54760 16-539); assay: ELISA: biotinylated mEphrinB2 (250 ng/mL) on coated hEphB4, with or without 100 µg/mL anti-EphB4 Fab
T2 construct: extracellular domain; also called hEphB4; hu EphB4-Fc
T2 sequence (looked up): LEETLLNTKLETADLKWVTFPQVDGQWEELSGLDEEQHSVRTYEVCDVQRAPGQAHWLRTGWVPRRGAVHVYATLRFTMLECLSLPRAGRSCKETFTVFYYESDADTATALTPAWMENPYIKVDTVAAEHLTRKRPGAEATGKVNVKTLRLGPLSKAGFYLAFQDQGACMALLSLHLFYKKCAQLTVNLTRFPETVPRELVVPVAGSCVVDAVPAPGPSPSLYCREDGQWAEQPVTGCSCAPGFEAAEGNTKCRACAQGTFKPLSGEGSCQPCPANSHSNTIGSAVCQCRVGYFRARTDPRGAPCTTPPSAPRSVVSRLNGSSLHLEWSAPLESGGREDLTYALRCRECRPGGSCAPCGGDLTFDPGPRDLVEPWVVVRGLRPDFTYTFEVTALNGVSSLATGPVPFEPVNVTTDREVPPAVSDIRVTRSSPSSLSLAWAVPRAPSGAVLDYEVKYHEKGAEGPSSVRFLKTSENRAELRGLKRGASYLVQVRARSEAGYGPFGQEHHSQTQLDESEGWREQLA
Protocol: as §1

[3] = biological target: T3, recombinant mouse EphB3-Fc fusion protein (mouse, UniProt P54754 30-537, limits assumed); assay: ELISA: biotinylated mEphrinB2 (250 ng/mL) on coated mEphB3, with or without 100 µg/mL anti-EphB4 Fab
T3 construct: also called mEphB3; not shown: Fc part, not described
T3 sequence (looked up): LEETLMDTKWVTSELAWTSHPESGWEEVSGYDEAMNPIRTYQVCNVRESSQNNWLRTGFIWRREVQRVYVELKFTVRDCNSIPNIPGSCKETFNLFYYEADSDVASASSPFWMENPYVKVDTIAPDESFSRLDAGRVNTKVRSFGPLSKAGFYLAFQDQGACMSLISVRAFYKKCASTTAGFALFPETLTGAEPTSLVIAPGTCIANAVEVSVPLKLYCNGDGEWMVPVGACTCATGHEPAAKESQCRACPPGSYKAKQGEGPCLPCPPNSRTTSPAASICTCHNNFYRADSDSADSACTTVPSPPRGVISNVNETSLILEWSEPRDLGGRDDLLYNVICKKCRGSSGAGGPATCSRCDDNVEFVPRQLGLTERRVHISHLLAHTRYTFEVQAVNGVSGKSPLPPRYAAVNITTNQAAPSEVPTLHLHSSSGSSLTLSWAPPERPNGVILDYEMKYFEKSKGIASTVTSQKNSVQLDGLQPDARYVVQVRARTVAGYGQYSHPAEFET
Protocol: as §1

[4] = biological target: T4, myc-tagged human EphB4 on transfected CHO cells (human, UniProt P54760 16-987); assay: FACS titration of IgG4-Pro on CHO-EphB4 cells; n = 1
T4 construct: whole, on cells; also called CHO-EphB4; CHO-hEphB4; not shown: myc tag
T4 sequence (looked up): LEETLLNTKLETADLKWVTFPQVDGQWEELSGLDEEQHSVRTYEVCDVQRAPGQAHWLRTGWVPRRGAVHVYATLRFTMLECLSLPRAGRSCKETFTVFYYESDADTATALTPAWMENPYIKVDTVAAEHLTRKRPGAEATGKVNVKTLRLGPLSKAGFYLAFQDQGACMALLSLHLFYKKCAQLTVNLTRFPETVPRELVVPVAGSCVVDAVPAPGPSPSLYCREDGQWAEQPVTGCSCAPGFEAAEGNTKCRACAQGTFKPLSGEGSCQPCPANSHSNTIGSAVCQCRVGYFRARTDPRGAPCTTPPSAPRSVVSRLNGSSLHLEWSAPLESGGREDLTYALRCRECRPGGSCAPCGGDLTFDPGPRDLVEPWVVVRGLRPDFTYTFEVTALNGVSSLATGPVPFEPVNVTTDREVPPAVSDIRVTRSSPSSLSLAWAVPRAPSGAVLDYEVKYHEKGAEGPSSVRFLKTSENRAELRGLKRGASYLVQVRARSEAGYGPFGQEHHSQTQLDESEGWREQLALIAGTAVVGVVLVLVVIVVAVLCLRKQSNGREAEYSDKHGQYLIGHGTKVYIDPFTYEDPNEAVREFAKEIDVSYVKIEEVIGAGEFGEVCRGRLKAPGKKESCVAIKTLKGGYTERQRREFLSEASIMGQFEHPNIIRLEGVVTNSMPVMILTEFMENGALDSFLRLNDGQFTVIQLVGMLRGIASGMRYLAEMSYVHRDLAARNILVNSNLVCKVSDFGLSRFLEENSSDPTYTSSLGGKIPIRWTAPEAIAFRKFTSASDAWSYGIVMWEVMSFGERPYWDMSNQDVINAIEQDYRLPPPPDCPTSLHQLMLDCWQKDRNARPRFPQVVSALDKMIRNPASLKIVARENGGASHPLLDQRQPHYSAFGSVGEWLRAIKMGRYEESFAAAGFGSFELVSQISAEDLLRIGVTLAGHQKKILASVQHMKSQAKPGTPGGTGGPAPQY
Protocol: (§2) For the determination of EC50 values, the 12 final IgGs were analyzed on CHO-EphB4 cells in FACS. The EC50 values of the IgGs, determined in two independent experiments, are given in Table 11 and are compared to the EC50 values of the corresponding Fab. […] Again, as already seen for the Fab, the EC50 values of the MOR07310 pool were slightly better than those of the MOR03641 pool.

[5] = biological target: T4, myc-tagged human EphB4 on transfected …; assay: FACS competition on CHO-EphB4 cells, competitor murine ephrin-B2
Protocol: (§3) C50 values (i.e. IgG4-Pro inhibition of ligand binding) were determined in FACS. […] Receptor-bound ephrin-B2 was detected via biotinylated anti-mouse ephrin-B2 antibody (R&D Systems) and streptavidin-PE. The IC50 values of the IgGs, determined in two independent experiments, are given in Table 11 and are compared to the IC50 values of the corresponding Fab. […] Again, as already seen for the Fab, the IC50 values of the MOR07310 pool were slightly better than those of the MOR03641 pool.

[6] = biological target: T4, myc-tagged human EphB4 on transfected …; assay: FACS, IgG4-Pro inhibition of murine ephrin-B2 binding to CHO-EphB4 cells
Protocol: as §3

[7] = biological target: T4, myc-tagged human EphB4 on transfected …; assay: FACS titration of IgG4-Pro on CHO-EphB4 cells
Protocol: as §2

[8] = biological target: T4, myc-tagged human EphB4 on transfected …; assay: FACS titration of IgG4-Pro on CHO-EphB4 cells; end tied by Table 11 (4.83)
Protocol: as §2

[9] = biological target: T4, myc-tagged human EphB4 on transfected …; assay: FACS, IgG4-Pro inhibition of murine ephrin-B2 binding to CHO-EphB4 cells; end tied by Table 11 (11.55)
Protocol: as §3

T1 sequence (Q03137 20-547 limits assumed): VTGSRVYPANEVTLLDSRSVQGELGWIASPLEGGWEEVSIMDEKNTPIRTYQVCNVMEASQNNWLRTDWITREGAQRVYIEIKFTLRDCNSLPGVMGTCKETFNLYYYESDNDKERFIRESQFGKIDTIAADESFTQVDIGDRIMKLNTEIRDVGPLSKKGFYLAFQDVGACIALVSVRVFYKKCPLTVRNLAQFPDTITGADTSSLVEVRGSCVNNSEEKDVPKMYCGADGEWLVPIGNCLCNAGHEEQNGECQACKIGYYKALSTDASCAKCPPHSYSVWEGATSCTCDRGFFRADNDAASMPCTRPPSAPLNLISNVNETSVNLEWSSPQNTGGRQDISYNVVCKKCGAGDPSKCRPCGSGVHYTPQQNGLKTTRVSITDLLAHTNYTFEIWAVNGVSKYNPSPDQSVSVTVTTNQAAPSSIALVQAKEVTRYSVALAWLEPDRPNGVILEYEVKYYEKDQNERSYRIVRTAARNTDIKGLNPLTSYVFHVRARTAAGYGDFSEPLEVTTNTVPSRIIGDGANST

binding result [1]: no binding (tested: 250 ng/mL)
binding result [2]: binds
binding result [3]: binds
B1: recombinant murine EphrinB2 (extracellular domain) (ligand, mouse, UniProt P52800 29-232, looked up)
chain: RSIVLEPIYWNSSNSKFLPGQGLVLYPQIGDKLDIICPKVDSKTVGQYEYYKVYMVDKDQADRCTIKKENTPLLNCARPDQDVKFTIKFQEFSPNLWGLEFQKNKDYYIISTSNGSLEGLDNQEGGVCQTRAMKILMKVGQDASSAGSARNHGPTRRPELEAGTNGRSSTTSPFVKPNPGSSTDGNSAGHSGNNLLGSEVALFA
modifications: biotinylated in Examples 8 and 10-12
notes: extracellular domain; also called mEphrinB2; recombinant biotinylated murine EphrinB2

EC50 [4]: 0.3 nM
IC50 (read off the curve) [5]: ~0.1 nM
IC50 [6]: 0.11 nM
B2: MOR07720 IgG4-Pro (antibody, V domains shown)
VH: QVQLVESGGGLVQPGGSLRLSCAASGFTFNNAWMSWVRQAPGKGLEWVSQIEAKQPGGATSYAASVKGRFTISRDNSKNTLYLQMNSLRAEDTAVYYCARKGMSFYNNKYAKSMFDLWGQGTLVTVSS
VL: DIELTQPPSVSVAPGQTARISCSGDNLGKKYVHWYQQKPGQAPVLVIYYDSKRPSGIPERFSGSNSGNTATLTISGTQAEDEADYYCSAWTTTMMHIVFGGGTKLTVLG
notes: Fab MOR07720 converted into human IgG4-Pro format

EC50 [7]: 4.83 nM
EC50 (read off the curve) [7]: ~5 nM
EC50 [8]: 4.8 nM
IC50 (read off the curve) [5]: ~20 nM
IC50 [6]: 11.6 nM
IC50 [9]: 11.6 nM
B3: MOR07729 IgG4-Pro (antibody, V domains shown)
VH: QVELVQSGAEVKKPGSSVKVSCKASGGTFSTYAISWVRQAPGQGLEWMGRIIPIFGTANYAQKFQGRVTITADESTSTAYMELSSLRSEDTAVYYCARSSYTILTTYYNYNAMDNWGQGTLVTVSS
VL: DIQMTQSPSSLSASVGDRVTITCRASQNINNFLNWYQQKPGKAPKLLIYGSSILQSGVPSRFSGSGSGTDFTLTISSLQPEDFATYYCQQYDFYLSGTFGQGTKVEIKR
notes: Fab MOR07729 converted into human IgG4-Pro format
